Measured values published in US20180282373.

Molecular target: purified recombinant full-length WDR5, P61964

| Protein | core complex methyltransferase activity, H3K4me0 peptide, mutant against wild type | core complex methyltransferase activity, H3K4me1 and H3K4me2 peptides, mutant against wild type |
| --- | --- | --- |
| GST-tagged MLL3 Win-SET domain, MLL3(4689-4911), R4710A (protein) FRYGRNPLMELPLAVNPTGCAASEPKMSAHVKRFVLRPHTLNSTSTSKSFQSTVTGELNAPYSKQFVHSKSSQYRKMKTEWKSNVYLARSRIQGLGLYAARDIEKHTMVIEYIGTIIRNEVANRKEKLYESQNRGVYMFRMDNDHVIDATLTGGPARYINHSCAPNCVAEVVTFERGHKIIISSSRRIQKGEELCYDYKFDFEDDQHKIPCHCGAVNCRKWMN | approximately 2-fold more activity than the wild-type MLL3 core complex |  |
| GST-tagged SETd1B Win-SET domain, Setd1B(1727-1966), R1748A (protein) LSSAKKKKRDDGIREHVTGCAASEGFYTIDKKDKLRYLNSSRASTDEPPADTQGMSIPAQPHASTRAGSERRSEQRRLLSSFTGSCDSDLLKFNQLKFRKKKLKFCKSHIHDWGLFAMEPIAADEMVIEYVGQNIRQVIADMREKRYEDEGIGSSYMFRVDHDTIIDATKCGNFARFINHSCNPNCYAKVITVESQKKIVIYSKQHINVNEEITYDYKFPIEDVKIPCLCGSENCRGTLN |  | showed similar amounts of activity compared to that of their wild-type counterparts |
